B1: HDV Ribozyme (parent)
chain: GGCCGGCAUGGUCCCAGCCUCCUCGCUGGCGCCGGCUGGGCAACAUUCCGAGGGGACCGUCCCCUCGGUAAUGGCGAAUGGGACCCA

Variants of: B1
Assay: self-cleavage, relative activity (ratio to wild type); higher = more cleavage; co-transcriptional

Going from GGCUGGCAUGGUCCCAGCCUCCUCGCUGGCGCCGGCUGGGCAACAUUCCGAGGGGACCGUCCCCUCGGUAAUGGCGAUUGGGACCCA to GGCUGGCAUGGUCCCAGCCUCCUCGCUGGCGCCGGCUGGGCAACAUUCCGAGGGGACCGUCCCCUCGGUAAUGGCGAGUGGGACCCA, the self-cleavage rises from 0.155 to 0.375.

Compared with GGCUGGCAUGGUCCCAGCCUCCUCGCUGGCGCCGGCUGGGCAACAUUCCGAGGGGAGCGUCCCCUCGGUAAUGGCGAAUGGGACCCA, GGCUGGCAUGGUCCCAGCCUCCUCGCUGGCGCCGGCUGGGCAACAUUCCGAGGGGAUCGUCCCCUCGGUAAUGGCGAAUGGGACCCA is higher in self-cleavage: 0.629 for the first, 0.656 for the second.

First: GGCUGGCAUGGUCCCAGCCUCCUCGCUGGCGCCGGCUGGGCGACAUUCCGAGGGGACCGUCCCCUCGGUAAUGGCGAAUGGGACCCA
Second: GGCUGGCAUGGUCCCAGCCUCCUCGCUGGCGCCGGCUGGGCCACAUUCCGAGGGGACCGUCCCCUCGGUAAUGGCGAAUGGGACCCA
The self-cleavage of the first is higher: 0.138 for the first, 0.0475 for the second.

Going from GGCUGGCAUGGUCCCAGCCUCCUCGCUGGCGCCGGCUGGGCAACAUUCCGAGGGGACCGUCCCCUCGGUAAUGGCGAAUGGGACCCC to GGCUGUCAUGGUCCCAGCCUCCUCGCUGGCGCCGGCUGGGCAACAUUCCGAGGGGACCGUCCCCUCGGUAAUGGCGAAUGGGACCCA, the self-cleavage falls from 0.708 to 0.219.

Compared with GGCUGGCAUGGUCCCAGCCUCCUCGUUGGCGCCGGCUGGGCAACAUUCCGAGGGGACCGUCCCCUCGGUAAUGGCGAAUGGGACCCA, GGCUGGCAUGGUCCCAGCCUCCUCGCUGGCGCCGGCUGGGCAACAUUCCGAGGGGACCGUCCCCUCGGUACUGGCGAAUGGGACCCA is lower in self-cleavage: 0.764 for the first, 0.499 for the second.

First: GGCUGGCAUGGUCCCAGCCUCCUCGCUGGCGCCGGCUGGGCAACAUUCCGAGGGGACGGUCCCCUCGGUAAUGGCGAAUGGGACCCA
Second: GGCUGGCAUGGUCCCAGCCUCCUCGCUGGCGCCGGCUGGGCAACAUUACGAGGGGACCGUCCCCUCGGUAAUGGCGAAUGGGACCCA
The self-cleavage of the first is lower: 0.615 for the first, 0.706 for the second.

Compared with GGCUGGCAUGGUCCCAGCCUCCUCGCUGGCGCCGGCUGGGCAACAUUGCGAGGGGACCGUCCCCUCGGUAAUGGCGAAUGGGACCCA, GGCUGGCAUGGUCCCAGCCUCCUCGCUGGCGCCGGAUGGGCAACAUUCCGAGGGGACCGUCCCCUCGGUAAUGGCGAAUGGGACCCA is lower in self-cleavage: 0.554 for the first, 0 for the second.

Going from GGCUGGCAUGGUCCCAGCCUCCUCGCUGGCGCCGGGUGGGCAACAUUCCGAGGGGACCGUCCCCUCGGUAAUGGCGAAUGGGACCCA to GGCUGGCAUGGUCCCAGCCUCCUCGCUGGCGCCGGUUGGGCAACAUUCCGAGGGGACCGUCCCCUCGGUAAUGGCGAAUGGGACCCA, the self-cleavage rises from 0.0707 to 0.272.

First: GGCUGGCAUGGUCCCAGCCUCCUCGCUGGCGCCGGCUGGGCAACAUUCAGAGGGGACCGUCCCCUCGGUAAUGGCGAAUGGGACCCA
Second: GGCUGGCAUGGUCCCAGCCUCCUCGCUGGCGCCGGCUGGGCAACAUUCUGAGGGGACCGUCCCCUCGGUAAUGGCGAAUGGGACCCA
The self-cleavage of the first is lower: 0.332 for the first, 0.789 for the second.

Compared with GGCUGGCAUGGUCCCAGCCUCCUCGCUGGCGCCGGCUGGGCAACAUUCGGAGGGGACCGUCCCCUCGGUAAUGGCGAAUGGGACCCA, GGCUGGCAUGGUCCCAGCCUCCUAGCUGGCGCCGGCUGGGCAACAUUCCGAGGGGACCGUCCCCUCGGUAAUGGCGAAUGGGACCCA is lower in self-cleavage: 0.604 for the first, 0.0583 for the second.

Going from GGCUGGCAUGGUCCCAGCCUCCUGGCUGGCGCCGGCUGGGCAACAUUCCGAGGGGACCGUCCCCUCGGUAAUGGCGAAUGGGACCCA to GGCUGGCAUGGUCCCCGCCUCCUCGCUGGCGCCGGCUGGGCAACAUUCCGAGGGGACCGUCCCCUCGGUAAUGGCGAAUGGGACCCA, the self-cleavage rises from 0.0678 to 0.434.

Going from GGCUGGCAUGGUCCCAGCCUCCUCGCUGGCGCCGGCUGGGUAACAUUCCGAGGGGACCGUCCCCUCGGUAAUGGCGAAUGGGACCCA to GGCUGGCAUCGUCCCAGCCUCCUCGCUGGCGCCGGCUGGGCAACAUUCCGAGGGGACCGUCCCCUCGGUAAUGGCGAAUGGGACCCA, the self-cleavage rises from 0.567 to 0.63.

Going from GGCUGGCAUGGUCCCAGCCUCCUCGCUGGCGCCGGCUGGGCAACAUUCCGAGGGGACCGUCCCGUCGGUAAUGGCGAAUGGGACCCA to GGCUGGCAUGGUCCCAGCCUCCUCGCUGGCGCCGGCUGGGCAACAUUCCGAGGGGACCGUCCCCUCGGUAAUGGCGAAUGGGACGCA, the self-cleavage rises from 0.538 to 0.935.

Going from GGCUGGCAUGGUCCCAGCCUCCUCGCUGGCGCCGGCUGGGCAACAUUCCGAGGGGACCGUCCCCUCGGUAAUGGCGAAUGGGACUCA to GGCUGGCAUGGUUCCAGCCUCCUCGCUGGCGCCGGCUGGGCAACAUUCCGAGGGGACCGUCCCCUCGGUAAUGGCGAAUGGGACCCA, the self-cleavage falls from 0.665 to 0.516.

First: GGCUGGCCUGGUCCCAGCCUCCUCGCUGGCGCCGGCUGGGCAACAUUCCGAGGGGACCGUCCCCUCGGUAAUGGCGAAUGGGACCCA
Second: GGCUGGCAUGGUCCCAGCCUCCUCGCUGGCGCCGGCUGGGCAACAUUCCGAGGGGACCGUCCCCUCGGUUAUGGCGAAUGGGACCCA
The self-cleavage of the first is lower: 0.443 for the first, 0.554 for the second.

Going from GGCUGGCAUGGUCCCAGCCUCCUCGCUGGCGCCGGCUGGGCAACAUUCCGAGGGGACCGUCGCCUCGGUAAUGGCGAAUGGGACCCA to GGCUGGCAUGGUCCCAGCCUCCUCGCUGGCGCCGGCUGGGCAACAUUCCGAGGGGACCGUCUCCUCGGUAAUGGCGAAUGGGACCCA, the self-cleavage rises from 0.151 to 0.656.

Compared with GGCUGGCAUGGUCCCAGCCUCCUCGCUGGCGCCGGCUGGGCAAGAUUCCGAGGGGACCGUCCCCUCGGUAAUGGCGAAUGGGACCCA, GGCUGGCAUGGUCCCAGACUCCUCGCUGGCGCCGGCUGGGCAACAUUCCGAGGGGACCGUCCCCUCGGUAAUGGCGAAUGGGACCCA is lower in self-cleavage: 0.214 for the first, 0 for the second.

Going from GGCUGGCAUGGUCCCAGGCUCCUCGCUGGCGCCGGCUGGGCAACAUUCCGAGGGGACCGUCCCCUCGGUAAUGGCGAAUGGGACCCA to GGCUGGCAUGGUCCCAGCCUCCUCGCUGGUGCCGGCUGGGCAACAUUCCGAGGGGACCGUCCCCUCGGUAAUGGCGAAUGGGACCCA, the self-cleavage rises from 0.095 to 0.332.

Going from GGCUGGCAUGGUCCCAGCCUCCUCGCUGGCGCCGGCUGGGCAACAUUCCGAGGGGACCGUCCCCUCGGUAAUGGCGAAUGGGACCAA to GGCUGGCAUGGUCCCAGCCUCCUCGCUGGCGCCGGCUGGGCAACAUUCCGAGGGGACCGUCCCCUCGGUAAUGGCGAAUGGGACCGA, the self-cleavage falls from 0.875 to 0.831.

Compared with GGCUGGCAUGGUCCCAGCCUCCUCGCUGGCGGCGGCUGGGCAACAUUCCGAGGGGACCGUCCCCUCGGUAAUGGCGAAUGGGACCCA, GGCUGGCAUGAUCCCAGCCUCCUCGCUGGCGCCGGCUGGGCAACAUUCCGAGGGGACCGUCCCCUCGGUAAUGGCGAAUGGGACCCA is higher in self-cleavage: 0 for the first, 0.225 for the second.

First: GGCUGGGAUGGUCCCAGCCUCCUCGCUGGCGCCGGCUGGGCAACAUUCCGAGGGGACCGUCCCCUCGGUAAUGGCGAAUGGGACCCA
Second: GGCUGGCAUGGUCCCAGCCUUCUCGCUGGCGCCGGCUGGGCAACAUUCCGAGGGGACCGUCCCCUCGGUAAUGGCGAAUGGGACCCA
The self-cleavage of the first is lower: 0 for the first, 0.0678 for the second.

Going from GGCUGGCAUGGUCACAGCCUCCUCGCUGGCGCCGGCUGGGCAACAUUCCGAGGGGACCGUCCCCUCGGUAAUGGCGAAUGGGACCCA to GGCUGGCAUGGUCUCAGCCUCCUCGCUGGCGCCGGCUGGGCAACAUUCCGAGGGGACCGUCCCCUCGGUAAUGGCGAAUGGGACCCA, the self-cleavage rises from 0.519 to 1.04.

Compared with GGCUGGCAUGGUCCCAGCCUCCUCGCUGGCGCCGGCUGGGCAACAUUCCGAGGGGACCGUCCCCUCGGUAAUGGCGAAUGGGGCCCA, GGCUGGCAUGGUCCCAGCCUCCUCGCUGGCGCCGGCUGGGCAACAUUCCGAGGGGACCGUCCUCUCGGUAAUGGCGAAUGGGACCCA is higher in self-cleavage: 0.464 for the first, 0.682 for the second.

First: GGCUGGCAUGGUCCCAGCCUCCUCGCUGGCGCCGGCUGGGCAACAUUCCGAGGGGACCGUCCGCUCGGUAAUGGCGAAUGGGACCCA
Second: GGCUGGCAUGGUCCCAGCUUCCUCGCUGGCGCCGGCUGGGCAACAUUCCGAGGGGACCGUCCCCUCGGUAAUGGCGAAUGGGACCCA
The self-cleavage of the first is higher: 0.396 for the first, 0.0665 for the second.

Compared with GGCUGGCAUGGUCCCAGCGUCCUCGCUGGCGCCGGCUGGGCAACAUUCCGAGGGGACCGUCCCCUCGGUAAUGGCGAAUGGGACCCA, GGCUGGCAUGGUCCCAGCCUCCUCGCUGGCGCCGGCUGGGCAGCAUUCCGAGGGGACCGUCCCCUCGGUAAUGGCGAAUGGGACCCA is lower in self-cleavage: 0.0268 for the first, 0 for the second.

First: GGCUGGCAUGGUCCCAGCCUCCUCGCUGGCGCCGGCUGGGCAUCAUUCCGAGGGGACCGUCCCCUCGGUAAUGGCGAAUGGGACCCA
Second: GGCUGGCAUGGUCCUAGCCUCCUCGCUGGCGCCGGCUGGGCAACAUUCCGAGGGGACCGUCCCCUCGGUAAUGGCGAAUGGGACCCA
The self-cleavage of the first is lower: 0.332 for the first, 0.731 for the second.

Going from GGCUGGCAUGGUCCAAGCCUCCUCGCUGGCGCCGGCUGGGCAACAUUCCGAGGGGACCGUCCCCUCGGUAAUGGCGAAUGGGACCCA to GGCUGGCAUGGUCCCAGCCUCCUCGCUGGCGCUGGCUGGGCAACAUUCCGAGGGGACCGUCCCCUCGGUAAUGGCGAAUGGGACCCA, the self-cleavage rises from 0.302 to 0.612.

First: GGCUGGCAUGGUCCCAGCCUCCUCGCUGGCGCGGGCUGGGCAACAUUCCGAGGGGACCGUCCCCUCGGUAAUGGCGAAUGGGACCCA
Second: GGCUGGCAUGGUCCCAGCCUCCUCGCUGGCGCCGGCUGGGCAACAUUCCGAGGGGACCGUCCCCUCGGUAAUGGCGGAUGGGACCCA
The self-cleavage of the first is lower: 0 for the first, 0.578 for the second.

Compared with GGCUGGCAUGGUCCCAGCCUCCUCGCUGGCGCCGGCUGGGCAACAUUCCGCGGGGACCGUCCCCUCGGUAAUGGCGAAUGGGACCCA, GGCUGGCAUGGUCCCAGCCUCCUCGCUGGCGCCGGCUGGGCAACAUUCCGAGGGGACCGUUCCCUCGGUAAUGGCGAAUGGGACCCA is lower in self-cleavage: 0.723 for the first, 0.717 for the second.

First: GGCUGGCAUGGUCCCAGCCUCCUCGCUGGCGCCGGCUGGGCAACAUUCCGAGGGGACCGUACCCUCGGUAAUGGCGAAUGGGACCCA
Second: GGCUGGCAUGGUCCCAGCCUCGUCGCUGGCGCCGGCUGGGCAACAUUCCGAGGGGACCGUCCCCUCGGUAAUGGCGAAUGGGACCCA
The self-cleavage of the first is higher: 0.978 for the first, 0.111 for the second.

Compared with GGCUUGCAUGGUCCCAGCCUCCUCGCUGGCGCCGGCUGGGCAACAUUCCGAGGGGACCGUCCCCUCGGUAAUGGCGAAUGGGACCCA, GGCUAGCAUGGUCCCAGCCUCCUCGCUGGCGCCGGCUGGGCAACAUUCCGAGGGGACCGUCCCCUCGGUAAUGGCGAAUGGGACCCA is lower in self-cleavage: 0.237 for the first, 0.185 for the second.

Going from GGCUGGCAUGGUCCCAGCCUCCUCGCUGGCGCCGGCUGGGCAACAUUCCGAGGGGACCGUCCCCUCGGUAAUGGGGAAUGGGACCCA to GGCUGGCAUGGUCCCAGCCUCCUCGCUGGCGCCGGCUGGGCAACAUUCCGAGGGGCCCGUCCCCUCGGUAAUGGCGAAUGGGACCCA, the self-cleavage rises from 0.122 to 0.522.
